Measured values from article PMC7586906, “Development and characterization of specific anti‐Usutu virus chicken‐derived single chain variable fragment antibodies” (Protein Science : A Publication of the Protein Society, 2020).
Changes are numbered by the printed parent chain. Where “and” joins values, the source holds several entries; their conditions need not be identical. Equal entries are not always repeated.

B1: scFv G1 (scFv, V domains shown)
VH: AVTLDESGGGLQTPGGGLSLVCKASGFDFSRYGMNWVRQAPGKGLEWVAGISPDGSGTWYATAVKGRATISRDNGQSTVRLQLNNLRAEDTATYYCTRGNGDSFDAWGHGTEVIVSS
VL: ALTQPSSVSANLGGTVKITCSGGSYSYGWYQQKSPGSAPVTVIYYNDKRPSDIPSRFSGSKSGSTGTLTITGVQADDEAVYFCGGFDSSAGYVGIFGAGTTLTVL
notes: chicken light chain variable region (V lambda) of G1, N-terminal part of the scFv; long linker between V lambda and VH; From a chicken immune phage display library in pComb3XSS; Could not be held stably on the SPR chip; source: E. coli TOP10, purified (IMAC, HisTrap FF); not shown: His6, C-terminal, kept; HA, C-terminal, kept
B2: scFv D2.2 (scFv, V domains shown)
VH: AVTLDESGGGLQTPGGALSLVCKGSGFTFSSHAMMWVRQAPGKGLEWVAGISRDGSTYYGAAVKGRATISRDDGQSTVRLQLNNLRAEDTGTYFCAKDVYGYCDTISGCEAGTIDAWGHGTEVIVSS
VL: B1 VL with G14E, G23S, Y25G, G85S, F86E, A90S, G91T, V93A
notes: chicken light chain variable region (V lambda) of D2.2, N-terminal part of the scFv; long linker between V lambda and VH; chicken heavy chain variable region (VH) of D2.2; From a chicken immune phage display library in pComb3XSS; source: E. coli TOP10, purified (IMAC, HisTrap FF); not shown: His6, C-terminal, kept; HA, C-terminal, kept
B3: scFv A9 (scFv, V domains shown)
VH: AVTLDESGGGLQTPGGTLSLVCKASGFTFSSVNMFWVRQAPGKGLEYVASISNTGSSTNYGAAVKGRATISRDNGQSTVRLQLNNLRAEDTATYFCAKDAYGYSFTVTPGYTIDAWGHGTEVIVSS
VL: ALTQPSSVSANLGGTVKITCSGGGGSYGWYQQKSPGSAPVTVIYENTKRPSNIPSRFSGSKSGSTSTLTITGVQAEDEAVYYCGSTDNNNIFGAGTTLTVL
notes: chicken light chain variable region (V lambda) of A9, N-terminal part of the scFv; long linker between V lambda and VH; chicken heavy chain variable region (VH) of A9; From a chicken immune phage display library in pComb3XSS; also called cross-reactive scFv; source: E. coli TOP10, purified (IMAC, HisTrap FF); not shown: His6, C-terminal, kept; HA, C-terminal, kept
B4: scFv A8 (scFv, V domains shown)
VH: AVTLDESGGGLQTPGGGLSLVCKASGFTMSSYHMGWVRQAPGKGLEYVVGIDNTGRYTDYGAAVKGRATISRDNGQSTLRLQLNNLRAEDTGTYFCAKSAYLGRGCWDAELCAGEIDAWGHGTEVIVSS
VL: ALTQPSSVSANLGGTVKITCSGGYSGYGWYQQKSPGSAPVTLIYDNTKRPSDIPSRFSGSKSGSTGTLTITGVQAEDEAVYYCGSGDSRNYVGIFGAGTTLTVR
notes: chicken light chain variable region (V lambda) of A8, N-terminal part of the scFv; long linker between V lambda and VH; chicken heavy chain variable region (VH) of A8; From a chicken immune phage display library in pComb3XSS; source: E. coli TOP10, purified (IMAC, HisTrap FF); not shown: His6, C-terminal, kept; HA, C-terminal, kept
B5: scFv A12 (scFv, V domains shown)
VH: B4 VH with G17A, M29F, V49A, D108G, A118T
VL: ALTQPSSVSANPGETVQITCSGSSNKYGNNYGWYQQKSPGSAPVTVIYDDDKRPSDIPPRFSGSKSGSTNTLTITGVQADDEAVYFCGAYDNSDSGIFGAGTALTVL
notes: chicken light chain variable region (V lambda) of A12, N-terminal part of the scFv; long linker between V lambda and VH; chicken heavy chain variable region (VH) of A12; From a chicken immune phage display library in pComb3XSS; source: E. coli TOP10, purified (IMAC, HisTrap FF); not shown: His6, C-terminal, kept; HA, C-terminal, kept

Key:
[1] = target: T1, USUV strain Vienna-2001 whole virus (E protein on virions) (Usutu virus Vienna-2001, UniProt Q5WPU5, strain); assay: ELISA; virus ELISA: PEG-precipitated USUV Vienna-2001 (8.1 × 10^6 pfu in 50 μl) coated on the plate, blocked with 5% BSA, scFv 2.5-20 μg/ml for 1 hr at 37°C, detected by HRP anti-His, 450 nm; settings: one partner purified
T1 construct: envelope (E) protein of Usutu virus strain Vienna-2001, cut from the polyprotein, as it stands on whole virions coated on the plate; The assay used whole virus; The other proteins of the virion are not written; also called USUV Vienna-2001; source: virus expanded in C6/36 cells, precipitated with 8% PEG8000, resuspended in NTE buffer

[2] = target: T2, soluble E (sE) protein of USUV strain Bologna-2009 (Usutu virus strain Bologna-2009, UniProt R4HE74, strain); assay: far-Western, overlay or dot blot; western blot at one amount: 0.5 μg of E protein DIII and 0.5 or 0.25 μg of sE per well on a 15% SDS gel, probed with 5 μg of scFv in 10 ml PBST, then mouse anti-HA and HRP goat anti-mouse; settings: both partners purified
T2 construct: also called sE of USUV; USUV sE; source: Drosophila S2 cells, provided by Prof; Karin Stiasny and Lena Roßbacher

[3] = target: T3, USUV E protein DIII group B (Usutu virus, sequence group B, strain); assay: SPR; Biacore T200; scFv captured by its His-tag on a CM5 chip (His Capture Kit), E protein DIII as analyte in two-fold dilutions (31-2,000 nM; WNV also 100-32,000 nM), multi-cycle kinetics, 25°C, PBS with 0.05% Tween 20, 30 μl/min; 1:1 kinetic fit (legend of Figure 4), steady-state affinity model named for KD in the methods; settings: both partners purified
T3 construct: 103 amino acids, 11.0 kDa; also called USUV B; USUV DIII group B
T3 chain: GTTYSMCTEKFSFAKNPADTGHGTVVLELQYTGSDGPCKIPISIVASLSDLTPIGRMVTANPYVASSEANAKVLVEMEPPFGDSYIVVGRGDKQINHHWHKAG

[4] = target: T4, WNV E protein DIII (West Nile virus NY99 (also called 2741), strain); assay: as above; settings: both partners purified
T4 construct: domain III of the envelope (E) protein of West Nile virus; 103 amino acids, 10.9 kDa; also called WNV DIII; WNV E protein DIII NY99 strain
T4 chain: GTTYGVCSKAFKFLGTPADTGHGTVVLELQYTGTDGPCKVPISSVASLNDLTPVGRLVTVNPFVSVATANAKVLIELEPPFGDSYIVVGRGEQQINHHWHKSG

[5] = target: T5, USUV E protein DIII group I (Usutu virus, sequence group I, strain); assay: as above; settings: both partners purified
T5 construct: 103 amino acids, 10.9 kDa; also called USUV I; USUV DIII group I
T5 chain: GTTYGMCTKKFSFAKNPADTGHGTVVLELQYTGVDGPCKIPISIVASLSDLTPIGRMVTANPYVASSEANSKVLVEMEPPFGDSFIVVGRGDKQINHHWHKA

[6] = target: T6, soluble E (sE) protein of WNV strain NY-1999 (West Nile virus NY-1999 (NY99), UniProt Q9Q6P4, strain); assay: far-Western, overlay or dot blot; western blot at one amount: 0.5 μg of E protein DIII and 0.5 or 0.25 μg of sE per well on a 15% SDS gel, probed with 5 μg of scFv in 10 ml PBST, then mouse anti-HA and HRP goat anti-mouse; settings: both partners purified
T6 construct: whole ectodomain of the envelope (E) protein of West Nile virus strain NY-1999 (NY99); also called sE of WNV; WNV NY99 sE; source: Drosophila S2 cells, provided by Prof; Karin Stiasny and Lena Roßbacher

Row | Binder | binding result [1] | binding result [2] | Kd [3] | koff [3] | kon [3] | Kd [4] [nM] | koff [4] | kon [4] | Kd [5] | koff [5] | kon [5] | binding result [6]
1 | B1 | binds | binds |  |  |  |  |  |  |  |  |  | 
2 | B2 | binds |  | 230 nM and 250 nM | 0.074 s⁻¹ and 0.069 s⁻¹ | 326000 M⁻¹ s⁻¹ and 273000 M⁻¹ s⁻¹ |  |  |  |  |  |  | 
3 | B3 | binds | binds | 410 nM and 360 nM | 0.062 s⁻¹ and 0.059 s⁻¹ | 152000 M⁻¹ s⁻¹ and 166000 M⁻¹ s⁻¹ | 100 | 0.105 s⁻¹ and 0.094 s⁻¹ | 1.04e+06 M⁻¹ s⁻¹ and 970000 M⁻¹ s⁻¹ | 290 nM and 300 nM | 0.05 s⁻¹ and 0.048 s⁻¹ | 170000 M⁻¹ s⁻¹ and 168000 M⁻¹ s⁻¹ | binds
4 | B4 | binds |  | 100 nM | 0.002 s⁻¹ | 20000 M⁻¹ s⁻¹ |  |  |  | 60 nM | 0.001 s⁻¹ | 19800 M⁻¹ s⁻¹ | 
5 | B5 | binds |  | 300 nM and 290 nM | 0.012 s⁻¹ and 0.01 s⁻¹ | 39600 M⁻¹ s⁻¹ and 34200 M⁻¹ s⁻¹ |  |  |  | 140 nM and 130 nM | 0.007 s⁻¹ and 0.006 s⁻¹ | 48600 M⁻¹ s⁻¹ and 46600 M⁻¹ s⁻¹ | 
